US20250215103A1 (Hoffmann-La Roche, published 2025)

B1: bispecific CrossMab 8017 (Pembrolizumab/1026) (bispecific antibody, human IgG1, kappa, L234A L235A)
heavy 1: QSMQESGPGLVKPSQTLSLTCTVSGFSLSSYAMSWIRQHPGKGLEWIGYIWSGGSTDYASWAKSRVTISKTSTTVSLKLSSVTAADTAVYYCARRYGTSYPDYGDASGFDPWGQGTLVTVSSASTKGPSVFPLAPSSKSTSGGTAALGCLVEDYFPEPVTVSWNSGALTSGVHTFPAVLQSSGLYSLSSVVTVPSSSLGTQTYICNVNHKPSNTKVDEKVEPKSCDKTHTCPPCPAPEAAGGPSVFLFPPKPKDTLMISRTPEVTCVVVDVSHEDPEVKFNWYVDGVEVHNAKTKPREEQYNSTYRVVSVLTVLHQDWLNGKEYKCKVSNKALGAPIEKTISKAKGQPREPQVCTLPPSRDELTKNQVSLSCAVKGFYPSDIAVEWESNGQPENNYKTTPPVLDSDGSFFLVSKLTVDKSRWQQGNVFSCSVMHEALHNHYTQKSLSLSP
light 1: AIQLTQSPSSLSASVGDRVTITCRASQSISSYLAWYQQKPGKAPKLLIYRASTLASGVPSRFSGSGSGTDFTLTISSLQPEDFATYYCQQNYASSNVDNTFGGGTKVEIKRTVAAPSVFIFPPSDRKLKSGTASVVCLLNNFYPREAKVQWKVDNALQSGNSQESVTEQDSKDSTYSLSSTLTLSKADYEKHKVYACEVTHQGLSSPVTKSFNRGEC
heavy 2: not shown
light 2: QVQLVQSGVEVKKPGASVKVSCKASGYTFTNYYMYWVRQAPGQGLEWMGGINPSNGGTNFNEKFKNRVTLTTDSSTTTAYMELKSLQFDDTAVYYCARRDYRFDMGFDYWGQGTTVTVSSASVAAPSVFIFPPSDEQLKSGTASVVCLLNNFYPREAKVQWKVDNALQSGNSQESVTEQDSKDSTYSLSSTLTLSKADYEKHKVYACEVTHQGLSSPVTKSFNRGEC
B2: PD1-0103-0312 (antibody, V domains shown)
VH: EVQLLESGGGLVQPGGSLRLSCAASGFSFSSYTMSWVRQAPGKGLEWVATISGGGRDIYYPDSVKGRFTISRDNSKNTLYLQMNSLRAEDTAVYYCVLLTGRVYFALDSWGQGTLVTVSS
VL: DIVMTQSPDSLAVSLGERATINCKASESVDTSDNSFIHWYQQKPGQSPKLLIYRSSTLESGVPDRFSGSGSGTDFTLTISSLQAEDVAVYYCQQNYDVPWTFGQGTKVEIK
B3: bispecific CrossMab 8012 (PD1-0103-0312/51A165) (bispecific antibody, human IgG1, kappa, L234A L235A)
heavy 1: EVQLQQSGPELVKPGASVKMSCKASGYTFTSYVMHWVKQKPGQGLEWIGYVNPYNDDTKYNEKFRGKATLTSDKSSSTAYMELSSLTSEDSAVYYCARSYYYYSMDNWGQGTSVTVSSASTKGPSVFPLAPSSKSTSGGTAALGCLVEDYFPEPVTVSWNSGALTSGVHTFPAVLQSSGLYSLSSVVTVPSSSLGTQTYICNVNHKPSNTKVDEKVEPKSCDKTHTCPPCPAPEAAGGPSVFLFPPKPKDTLMISRTPEVTCVVVDVSHEDPEVKFNWYVDGVEVHNAKTKPREEQYNSTYRVVSVLTVLHQDWLNGKEYKCKVSNKALGAPIEKTISKAKGQPREPQVCTLPPSRDELTKNQVSLSCAVKGFYPSDIAVEWESNGQPENNYKTTPPVLDSDGSFFLVSKLTVDKSRWQQGNVFSCSVMHEALHNHYTQKSLSLSP
light 1: QIVLTQSPAIMSASPGEKVTVTCSASSSIRYMHWYQQKPGTSPKRWIYDTSELASGVPARFSGSGSGTSYSLTINSMEAEDAATYYCHQRSSYPFTFGGGTKLEIKRTVAAPSVFIFPPSDRKLKSGTASVVCLLNNFYPREAKVQWKVDNALQSGNSQESVTEQDSKDSTYSLSSTLTLSKADYEKHKVYACEVTHQGLSSPVTKSFNRGEC
heavy 2: not shown
light 2: EVQLLESGGGLVQPGGSLRLSCAASGFSFSSYTMSWVRQAPGKGLEWVATISGGGRDIYYPDSVKGRFTISRDNSKNTLYLQMNSLRAEDTAVYYCVLLTGRVYFALDSWGQGTLVTVSSASVAAPSVFIFPPSDEQLKSGTASVVCLLNNFYPREAKVQWKVDNALQSGNSQESVTEQDSKDSTYSLSSTLTLSKADYEKHKVYACEVTHQGLSSPVTKSFNRGEC
B4: bispecific CrossMab 8018 (Pembrolizumab/51A165) (bispecific antibody, human IgG1, kappa, L234A L235A)
heavy 1: B3 heavy 1
light 1: B3 light 1
heavy 2: not shown
light 2: B1 light 2
B5: bispecific CrossMab 8013 (PD1-0103-0312/1026) (bispecific antibody, human IgG1, kappa, L234A L235A)
heavy 1: B1 heavy 1
light 1: B1 light 1
heavy 2: not shown
light 2: B3 light 2
B6: control 2+1 CrossMab 8159 (PD1-0103-0312/Nada TCB-format) (bispecific antibody, human IgG1, kappa, L234A L235A)
light 1: B3 light 2
light 2: DIQMTQSPSSLSASVGDRVTITCRASQDVGSGVAWYQQKPGKAPKLLIGSASGLYSGVPSRFSGSRSGTDFTLTISSLQPEDFATYYCQQSASGGSTFGQGTKVEIKRTVAAPSVFIFPPSDRKLKSGTASVVCLLNNFYPREAKVQWKVDNALQSGNSQESVTEQDSKDSTYSLSSTLTLSKADYEKHKVYACEVTHQGLSSPVTKSFNRGEC
heavy 1: DIVMTQSPDSLAVSLGERATINCKASESVDTSDNSFIHWYQQKPGQSPKLLIYRSSTLESGVPDRFSGSGSGTDFTLTISSLQAEDVAVYYCQQNYDVPWTFGQGTKVEIKSSASTKGPSVFPLAPSSKSTSGGTAALGCLVKDYFPEPVTVSWNSGALTSGVHTFPAVLQSSGLYSLSSVVTVPSSSLGTQTYICNVNHKPSNTKVDKKVEPKSCDGGGGSGGGGSEVQLVESGGGLVQPGGSLRLSCAASGFSIAGTAIHWVRQAPGKGLEWVASISPGGGSTAYADSVKGRFTISADTSKNTAYLQMNSLRAEDTAVYYCSRSGGSGASAMDYWGQGTLVTVSSASTKGPSVFPLAPSSKSTSGGTAALGCLVEDYFPEPVTVSWNSGALTSGVHTFPAVLQSSGLYSLSSVVTVPSSSLGTQTYICNVNHKPSNTKVDEKVEPKSCDKTHTCPPCPAPEAAGGPSVFLFPPKPKDTLMISRTPEVTCVVVDVSHEDPEVKFNWYVDGVEVHNAKTKPREEQYNSTYRVVSVLTVLHQDWLNGKEYKCKVSNKALGAPIEKTISKAKGQPREPQVCTLPPSRDELTKNQVSLSCAVKGFYPSDIAVEWESNGQPENNYKTTPPVLDSDGSFFLVSKLTVDKSRWQQGNVFSCSVMHEALHNHYTQKSLSLSP
heavy 2: not shown
B7: control 2+1 CrossMab 8158 (PD1-0103-0312/Nada BBB-format) (bispecific antibody, human IgG1, kappa, L234A L235A)
light 1: B3 light 2
light 2: B6 light 2
heavy 1: DIVMTQSPDSLAVSLGERATINCKASESVDTSDNSFIHWYQQKPGQSPKLLIYRSSTLESGVPDRFSGSGSGTDFTLTISSLQAEDVAVYYCQQNYDVPWTFGQGTKVEIKSSASTKGPSVFPLAPSSKSTSGGTAALGCLVKDYFPEPVTVSWNSGALTSGVHTFPAVLQSSGLYSLSSVVTVPSSSLGTQTYICNVNHKPSNTKVDKKVEPKSCDKTHTCPPCPAPEAAGGPSVFLFPPKPKDTLMISRTPEVTCVVVDVSHEDPEVKFNWYVDGVEVHNAKTKPREEQYNSTYRVVSVLTVLHQDWLNGKEYKCKVSNKALGAPIEKTISKAKGQPREPQVCTLPPSRDELTKNQVSLSCAVKGFYPSDIAVEWESNGQPENNYKTTPPVLDSDGSFFLVSKLTVDKSRWQQGNVFSCSVMHEALHNHYTQKSLSLSPGKGGGGSGGGGSEVQLVESGGGLVQPGGSLRLSCAASGFSIAGTAIHWVRQAPGKGLEWVASISPGGGSTAYADSVKGRFTISADTSKNTAYLQMNSLRAEDTAVYYCSRSGGSGASAMDYWGQGTLVTVSSASTKGPSVFPLAPSSKSTSGGTAALGCLVEDYFPEPVTVSWNSGALTSGVHTFPAVLQSSGLYSLSSVVTVPSSSLGTQTYICNVNHKPSNTKVDEKVEPKSCD
heavy 2: not shown
B8: control CrossMab 8014 (PD1-0103-0312/Nada) (bispecific antibody, human IgG1, kappa, L234A L235A)
heavy 1: EVQLVESGGGLVQPGGSLRLSCAASGFSIAGTAIHWVRQAPGKGLEWVASISPGGGSTAYADSVKGRFTISADTSKNTAYLQMNSLRAEDTAVYYCSRSGGSGASAMDYWGQGTLVTVSSASTKGPSVFPLAPSSKSTSGGTAALGCLVEDYFPEPVTVSWNSGALTSGVHTFPAVLQSSGLYSLSSVVTVPSSSLGTQTYICNVNHKPSNTKVDEKVEPKSCDKTHTCPPCPAPEAAGGPSVFLFPPKPKDTLMISRTPEVTCVVVDVSHEDPEVKFNWYVDGVEVHNAKTKPREEQYNSTYRVVSVLTVLHQDWLNGKEYKCKVSNKALGAPIEKTISKAKGQPREPQVCTLPPSRDELTKNQVSLSCAVKGFYPSDIAVEWESNGQPENNYKTTPPVLDSDGSFFLVSKLTVDKSRWQQGNVFSCSVMHEALHNHYTQKSLSLSP
light 1: B6 light 2
heavy 2: not shown
light 2: B3 light 2

Columns and labels:
Experiment in all cases: cell-based or functional assay
[1] = target: T1, human PD1 on cells (Jurkat cells expressing human PD1; activated human T cells) (human, UniProt Q15116 25-288)
T1 sequence (Q15116 25-288 limits assumed): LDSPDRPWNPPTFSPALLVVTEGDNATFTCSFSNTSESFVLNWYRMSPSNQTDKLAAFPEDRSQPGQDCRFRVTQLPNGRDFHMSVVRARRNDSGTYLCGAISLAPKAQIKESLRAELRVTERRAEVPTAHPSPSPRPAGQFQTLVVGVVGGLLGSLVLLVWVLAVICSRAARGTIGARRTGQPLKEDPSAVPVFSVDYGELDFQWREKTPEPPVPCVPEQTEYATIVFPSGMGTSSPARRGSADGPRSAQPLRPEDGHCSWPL

[2] = target: T1, human PD1 on cells (Jurkat cells …); remark: listed apart in the source
[3] = target: T1, human PD1 on cells (Jurkat cells …); remark: listed apart in the source

Row | Binder | Fold activity vs. control (EC50 of Granzyme B, mMLR), control 8019 [1] | Fold activity vs. control (EC50 of Granzyme B, mMLR), control PD1-0103-312 [2] | EC50 (pM) of Granzyme B production, mMLR [3] | Fold activity vs. control (EC50 of Granzyme B, mMLR), control 8014 [1]
1 | B1 | 1510 fold vs 8019 | 1.92 fold vs PD1-0103-312 | 121 pM | 
2 | B2 |  |  | 110 pM | 
3 | B3 |  | 3.82 fold vs PD1-0103-312 | 34 pM | 1560 fold vs 8014
4 | B4 | 4720 fold vs 8019 | 5.97 fold vs PD1-0103-312 | 139 pM | 
5 | B5 |  | 0.47 fold vs PD1-0103-312 | 388 pM | 191 fold vs 8014
6 | B6 |  |  | 117 pM | 
7 | B7 |  |  | 111 pM | 
8 | B8 |  |  | 13100 pM | 
